According to patent US20240150465A1 (Chugai, published 2024):

T1: human DLL3 (delta-like protein 3 isoform 1 precursor) expressed on Ba/F3 cells (human, UniProt Q9NYJ7 27-618)
T1 construct: Full-length cDNA stably transfected into mouse Ba/F3 cells; also called human DLL3 expressing Ba/F3
T1 sequence: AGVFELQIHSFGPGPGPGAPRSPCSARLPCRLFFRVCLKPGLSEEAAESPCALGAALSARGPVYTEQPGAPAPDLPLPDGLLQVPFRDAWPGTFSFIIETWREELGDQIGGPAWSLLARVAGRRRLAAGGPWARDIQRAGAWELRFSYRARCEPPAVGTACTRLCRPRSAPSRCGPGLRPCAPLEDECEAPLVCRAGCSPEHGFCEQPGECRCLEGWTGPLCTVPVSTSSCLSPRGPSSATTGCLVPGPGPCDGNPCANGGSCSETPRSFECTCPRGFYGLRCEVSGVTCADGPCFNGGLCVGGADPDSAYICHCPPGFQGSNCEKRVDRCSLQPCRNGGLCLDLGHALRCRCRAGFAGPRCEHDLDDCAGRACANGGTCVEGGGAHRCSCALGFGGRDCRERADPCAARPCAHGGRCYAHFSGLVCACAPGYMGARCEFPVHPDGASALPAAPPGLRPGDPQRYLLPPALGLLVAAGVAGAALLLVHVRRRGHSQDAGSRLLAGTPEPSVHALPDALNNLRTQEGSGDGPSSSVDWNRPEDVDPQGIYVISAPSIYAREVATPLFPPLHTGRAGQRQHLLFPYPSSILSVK

T2: del0
T2 construct: also called human DLL3 ECD with Flag-tag on C-terminus
T2 chain: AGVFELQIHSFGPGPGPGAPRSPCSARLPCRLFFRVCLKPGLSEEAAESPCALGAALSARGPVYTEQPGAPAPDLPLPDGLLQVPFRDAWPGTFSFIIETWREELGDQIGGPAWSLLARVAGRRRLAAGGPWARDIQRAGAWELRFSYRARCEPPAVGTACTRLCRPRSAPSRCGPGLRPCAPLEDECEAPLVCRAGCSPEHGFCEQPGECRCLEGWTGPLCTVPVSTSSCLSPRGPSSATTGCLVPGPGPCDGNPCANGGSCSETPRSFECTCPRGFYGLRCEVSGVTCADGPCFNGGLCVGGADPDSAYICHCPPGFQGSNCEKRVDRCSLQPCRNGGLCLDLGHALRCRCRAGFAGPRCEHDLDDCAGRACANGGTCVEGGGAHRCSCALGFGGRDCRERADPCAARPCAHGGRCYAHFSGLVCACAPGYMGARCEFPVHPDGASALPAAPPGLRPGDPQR

T3: del2
T3 construct: also called truncated human DLL3 ECD variant with Flag-tag on C-terminus
T3 chain: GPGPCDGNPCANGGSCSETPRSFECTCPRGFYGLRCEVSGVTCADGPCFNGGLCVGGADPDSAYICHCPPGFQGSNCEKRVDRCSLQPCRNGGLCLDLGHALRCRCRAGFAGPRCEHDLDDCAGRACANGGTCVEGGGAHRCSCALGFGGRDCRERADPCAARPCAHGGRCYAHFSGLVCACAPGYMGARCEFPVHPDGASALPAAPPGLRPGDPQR

T4: del3
T4 construct: also called truncated human DLL3 ECD variant with Flag-tag on C-terminus
T4 chain: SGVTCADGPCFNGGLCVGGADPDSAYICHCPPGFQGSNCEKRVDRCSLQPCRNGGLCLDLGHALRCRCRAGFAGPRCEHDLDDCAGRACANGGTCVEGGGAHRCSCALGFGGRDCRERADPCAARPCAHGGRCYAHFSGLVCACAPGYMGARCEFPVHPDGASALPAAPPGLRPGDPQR

T5: del4
T5 construct: also called truncated human DLL3 ECD variant with Flag-tag on C-terminus
T5 chain: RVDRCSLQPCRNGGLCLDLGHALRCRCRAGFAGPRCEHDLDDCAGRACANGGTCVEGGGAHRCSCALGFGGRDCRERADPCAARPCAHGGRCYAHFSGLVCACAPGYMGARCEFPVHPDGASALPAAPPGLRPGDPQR

T6: del5
T6 construct: also called truncated human DLL3 ECD variant with Flag-tag on C-terminus
T6 chain: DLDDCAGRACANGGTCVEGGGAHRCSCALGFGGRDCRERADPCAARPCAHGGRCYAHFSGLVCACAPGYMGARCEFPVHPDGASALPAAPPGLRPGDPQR

T7: del6
T7 construct: also called truncated human DLL3 ECD variant with Flag-tag on C-terminus
T7 chain: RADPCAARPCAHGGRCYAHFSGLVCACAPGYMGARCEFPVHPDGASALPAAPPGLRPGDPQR

T8: human DLL3 on the surface of cancer cell lines SK-MEL 30, NCI-H1436 and NCI-H2227 (human, UniProt Q9NYJ7 27-618)
T8 construct: whole, on cells; Endogenous protein of human cancer cell lines
T8 sequence (looked up): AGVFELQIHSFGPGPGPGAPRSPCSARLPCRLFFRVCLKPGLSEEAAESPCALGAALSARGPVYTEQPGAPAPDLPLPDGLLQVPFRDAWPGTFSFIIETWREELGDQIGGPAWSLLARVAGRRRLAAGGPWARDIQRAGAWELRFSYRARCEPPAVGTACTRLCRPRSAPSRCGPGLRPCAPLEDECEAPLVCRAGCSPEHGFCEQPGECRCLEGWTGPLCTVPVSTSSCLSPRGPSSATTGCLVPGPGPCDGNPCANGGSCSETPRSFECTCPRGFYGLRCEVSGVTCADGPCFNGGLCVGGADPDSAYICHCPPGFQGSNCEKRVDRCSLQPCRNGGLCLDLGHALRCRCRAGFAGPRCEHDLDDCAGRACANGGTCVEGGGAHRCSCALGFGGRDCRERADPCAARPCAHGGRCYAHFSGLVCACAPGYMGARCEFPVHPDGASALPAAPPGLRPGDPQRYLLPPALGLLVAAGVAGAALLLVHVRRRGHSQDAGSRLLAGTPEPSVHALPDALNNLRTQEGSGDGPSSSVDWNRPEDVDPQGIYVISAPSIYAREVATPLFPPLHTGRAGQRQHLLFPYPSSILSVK


Columns and labels:
[1] = molecular target: T1, human DLL3 (delta-like protein 3 …); assay: cell ELISA, B-cell culture supernatants on immobilized hDLL3/BaF_H3 cells
Procedure: ELISA screening was conducted to test specificity of antibodies in B-cell culture supernatants. Human DLL3 expressing Ba/F3 (hDLL3/BaF_H3 established in Example 2, 2.5×10⁴ cells) were immobilized onto a Nunc MaxiSorp 384-well plate (Sigma-Aldrich) which was pre-coated with BSA (Sigma-Aldrich) and SUNBRIGHT (registered trademark) OE-080CS as Biocompatible Anchor for cell Membrane (YUKA SANGYO). Immobilized cells were incubated with 20 microliters (micro L) of B-cell culture supernatants for 1 hour. The supernatants were aspirated and the cells were washed with HEPES buffer (0.02 M HEPES, 5 mM KCl, 4 mM NaHCO₃, 138 mM NaCl, 2 mM CaCl₂, 5 mM Glucose, 0.4 mM KH₂PO₄, 0.34 mM Na₂HPO₄° and 0.1% BSA). After washing, goat anti-rabbit IgG polyclonal antibody HRP conjugate (BETHYL, A120-111P) was added. The cells were further incubated on ice for 1 hour and washed. Then, ABTS Microwell Peroxidase Substrate (Kirkegaard & Perry Laboratories) was added and OD405 was analyzed with […]ax 384 (Molecular Devices).

del0 = molecular target: T2, del0; assay: ELISA with the human DLL3 ECD fragment proteins del0 to del6, OD405
Procedure: (§1) Nunc MaxiSorp 384-well plates (Sigma-Aldrich) were coated with each of the human DLL3 ECD fragment proteins del0 to del6, and blocked with 20% Blocking One (NACALAI TESQUE). Blocking buffer was removed and recombinant anti-DLL3 antibodies were incubated with the immobilized proteins for 1 hour at room temperature and washed with HEPES buffer (0.05% Tween20, HEPES). Monoclonal ANTI-FLAG M2-Peroxidase, Clone M2 (Sigma-Aldrich) was then added and incubated for 1 hour at room temperature and washed. Then, ABTS Microwell Peroxidase Substrate (Kirkegaard & Perry Laboratories) was added and OD405 was analyzed with […]ax 384 (Molecular Devices).

del2 = molecular target: T3, del2; assay: as above
Procedure: as §1

del3 = molecular target: T4, del3; assay: as above
Procedure: as §1

del4 = molecular target: T5, del4; assay: as above
Procedure: as §1

del5 = molecular target: T6, del5; assay: as above
Procedure: as §1

del6 = molecular target: T7, del6; assay: as above
Procedure: as §1

[2] = molecular target: T8, human DLL3 on the surface of cancer …; assay: flow cytometry on SK-MEL-30 cells, 20 micro g/mL antibody, FITC-labeled goat anti-rabbit IgG [A]
Procedure: The cancer cells (5×10⁵ cells) were washed with 0.5% BSA-supplemented CellWASH (BD Bioscience) (hereinafter referred to as FACS/PBS). Bivalent anti-DLL3 antibody (DLA0316-rbIgG) or the control antibody (rabbit IgG) was added at a final concentration of 20 micro g/mL in a 50 micro L solution. After being left to stand at 4 degrees C. for 30 to 60 minutes, the cells were washed with FACS/PBS, and an FITC-labeled goat anti-rabbit IgG antibody diluted 50-fold with FACS/PBS was added to the cells. After being left to stand at 4 degrees C. for further 30 minutes, the cells were washed with FACS/PBS, and analyzed by FACS Verse (Becton Dickinson).

Row | Binder | binding result [1] | binding result (del0) | binding result (del2) | binding result (del3) | binding result (del4) | binding result (del5) | binding result (del6) | binding result [2]
1 | DLA0379 (antibody, human IgG1, V domains shown, Rabbit B-cell clone, screened as B-cell culture supernatant) VH: QSLEESGGRLVTPGTPLTLTCTASGFSLNTYHMIWVRQAPGKGLEWIGIVDSGGSTYYASWAKGRFTISRTSTTVDLKATSLTTEDTATYFCARGGSWDGFNIWGPGTLVTVSS VL: DVVMTQTPSSVSAAVGGTVTINCQSSQSVYNSDFLAWYQQKPGQPPKLLIYAASTLASGVPSRFKGSGSGTQFTLTISDLECDDAATYYCQGTYEDVGWFNDFGGGTEVVVK | binds | binds | no binding | no binding | no binding | no binding | no binding | 
2 | DLA0316-rbIgG (antibody, V domains shown, also called bivalent DLA0316; Bivalent anti-DLL3 antibody) VH: QEQLVESGGGLVQPGGSLKLSCKVSGFDFSNYGVSWVRQAPGKGLEWIGYIDPAFGRTYYASWVNGRFTISSHNAQNTLYLQLNSLTAADTATYFCVRVALVVAGVAYYGMDVWGPGTLVTVSS VL: DVVMTQTPASVEAAVGGTVTINCQASQNIYSYLSWYQQKPGQPPKLLIYRTSTLASGVPSRFKGSGSGTQFTLTISDLECADAATYYCQSYYYSSGSSYGAFAFGGGTEVVVK |  |  |  |  |  |  |  | binds

More lines, now with the values ahead:

Row | binding result [1] | binding result (del0) | binding result (del2) | binding result (del3) | binding result (del4) | binding result (del5) | binding result (del6) | binding result [2] | Binder
3 | binds | binds |  |  |  | no binding | no binding |  | DLA0126 (antibody, human IgG1, V domains shown, Rabbit B-cell clone, screened as B-cell culture supernatant) VH: QSVEESGGRLVTPGTPLTLTCTVSGFSLSRYAMSWVRQAPGKGLEWIGIITGGGDPYYASWAKGRFTISKTSTTMDLKITSPTTEDTATYFCARMIGSEYASSSEYYDAFDPWGPGTLVTVSS VL: ALVMTQTPSSVSAAVGGTVTINCQASQNIYSNLAWYQQKPGQRPKLLIYGASNLESGVPSRFKGSGSGTEYTLTISDLECDDAAIYYCQSAYYTTSVDVLYPFGGGTEVVVK
4 | binds | binds |  |  |  | no binding | no binding |  | DLA0580 (antibody, human IgG1, V domains shown, Rabbit B-cell clone, screened as B-cell culture supernatant) VH: QEQLVESGGGLVQPGASLTLTCKASGFDFTSNAMCWVRQAPGKGPEWIACIYNDDGSAYSASWAKGRFTVSKTSSTAVTLQVTGLTAADTATYFCARSPYYTYGGAPSAYASGYFNLWGPGTLVTVSS VL: DIVMTQTPASVEAAVGGTVTIKCQASENIYNSLAWYQQKPGQPPKLLMHDASVLTSGVPSRFSGSGYGTEFTLTISDLECADAATYYCQSDYYSTGGSYGFAFGGGTEVVVK
